doi:10.1101/2020.02.22.960815 (bioRxiv, 2020)
Numbering of substitutions follows the chain as printed. Names may count otherwise.

B1: human potassium-chloride co-transporter 2 (KCC2), full length (natural protein, UniProt Q9H2X9-2 1-1116, looked up)
chain: MLNNLTDCEDGDGGANPGDGNPKESSPFINSTDTEKGKEYDGKNMALFEEEMDTSPMVSSLLSGLANYTNLPQGSREHEEAENNEGGKKKPVQAPRMGTFMGVYLPCLQNIFGVILFLRLTWVVGIAGIMESFCMVFICCSCTMLTAISMSAIATNGVVPAGGSYYMISRSLGPEFGGAVGLCFYLGTTFAGAMYILGTIEILLAYLFPAMAIFKAEDASGEAAAMLNNMRVYGTCVLTCMATVVFVGVKYVNKFALVFLGCVILSILAIYAGVIKSAFDPPNFPICLLGNRTLSRHGFDVCAKLAWEGNETVTTRLWGLFCSSRFLNATCDEYFTRNNVTEIQGIPGAASGLIKENLWSSYLTKGVIVERSGMTSVGLADGTPIDMDHPYVFSDMTSYFTLLVGIYFPSVTGIMAGSNRSGDLRDAQKSIPTGTILAIATTSAVYISSVVLFGACIEGVVLRDKFGEAVNGNLVVGTLAWPSPWVIVIGSFFSTCGAGLQSLTGAPRLLQAISRDGIVPFLQVFGHGKANGEPTWALLLTACICEIGILIASLDEVAPILSMFFLMCYMFVNLACAVQTLLRTPNWRPRFRYYHWTLSFLGMSLCLALMFICSWYYALVAMLIAGLIYKYIEYRGAEKEWGDGIRGLSLSAARYALLRLEEGPPHTKNWRPQLLVLVRVDQDQNVVHPQLLSLTSQLKAGKGLTIVGSVLEGTFLENHPQAQRAEESIRRLMEAEKVKGFCQVVISSNLRDGVSHLIQSGGLGGLQHNTVLVGWPRNWRQKEDHQTWRNFIELVRETTAGHLALLVTKNVSMFPGNPERFSEGSIDVWWIVHDGGMLMLLPFLLRHHKVWRKCKMRIFTVAQMDDNSIQMKKDLTTFLYHLRITAEVEVVEMHESDISAYTYEKTLVMEQRSQILKQMHLTKNEREREIQSITDESRGSIRRKNPANTRLRLNVPEETAGDSEEKPEEEVQLIHDQSAPSCPSSSPSPGEEPEGEGETDPEKVHLTWTKDKSVAEKNKGPSPVSSEGIKDFFSMKPEWENLNQSNVRRMHTAVRLNEVIVKKSRDAKLVLLNMPGPPRNRNGDENYMEFLEVLTEHLDRVMLVRGGGREVITIYS
B2: human potassium-chloride co-transporter 3 (KCC3), full length, wild type (natural protein, UniProt Q9UHW9-2 1-1099, looked up)
chain: MPHFTVTKVEDPEEGAAASISQEPSLADIKARIQDSDEPDLSQNSITGEHSQLLDDGHKKARNAYLNNSNYEEGDEYFDKNLALFEEEMDTRPKVSSLLNRMANYTNLTQGAKEHEEAENITEGKKKPTKTPQMGTFMGVYLPCLQNIFGVILFLRLTWVVGTAGVLQAFAIVLICCCCTMLTAISMSAIATNGVVPAGGSYFMISRALGPEFGGAVGLCFYLGTTFAAAMYILGAIEIFLVYIVPRAAIFHSDDALKESAAMLNNMRVYGTAFLVLMVLVVFIGVRYVNKFASLFLACVIVSILAIYAGAIKSSFAPPHFPVCMLGNRTLSSRHIDVCSKTKEINNMTVPSKLWGFFCNSSQFFNATCDEYFVHNNVTSIQGIPGLASGIITENLWSNYLPKGEIIEKPSAKSSDVLGSLNHEYVLVDITTSFTLLVGIFFPSVTGIMAGSNRSGDLKDAQKSIPIGTILAILTTSFVYLSNVVLFGACIEGVVLRDKFGDAVKGNLVVGTLSWPSPWVIVIGSFFSTCGAGLQSLTGAPRLLQAIAKDNIIPFLRVFGHSKANGEPTWALLLTAAIAELGILIASLDLVAPILSMFFLMCYLFVNLACALQTLLRTPNWRPRFRYYHWALSFMGMSICLALMFISSWYYAIVAMVIAGMIYKYIEYQGAEKEWGDGIRGLSLSAARFALLRLEEGPPHTKNWRPQLLVLLKLDEDLHVKHPRLLTFASQLKAGKGLTIVGSVIVGNFLENYGEALAAEQTIKHLMEAEKVKGFCQLVVAAKLREGISHLIQSCGLGGMKHNTVVMGWPNGWRQSEDARAWKTFIGTVRVTTAAHLALLVAKNISFFPSNVEQFSEGNIDVWWIVHDGGMLMLLPFLLKQHKVWRKCSIRIFTVAQLEDNSIQMKKDLATFLYHLRIEAEVEVVEMHDSDISAYTYERTLMMEQRSQMLRHMRLSKTERDREAQLVKDRNSMLRLTSIGSDEDEETETYQEKVHMTWTKDKYMASRGQKAKSMEGFQDLLNMRPDQSNVRRMHTAVKLNEVIVNKSHEAKLVLLNMPGPPRNPEGDENYMEFLEVLTEGLERVLLVRGGGSEVITIYS
modifications: phosphorylated threonine built on T940 and T997 (from the cryo-EM map and mass spectra); carbohydrate chains
B3: KCC3 dephosphorylation mimic mutant S45A/T940V/T997V (natural protein, human, UniProt Q9UHW9-2 1-1099, looked up)
chain: B2 chain with S45A, T940V, T997V
B4: KCC3 phosphorylation mimic mutant S45E/T940E/T997E (natural protein, human, UniProt Q9UHW9-2 1-1099, looked up)
chain: B2 chain with S45E, T940E, T997E

Target: the molecule itself
Test: cryo-EM structure

Protein | stoichiometry N | binding result
B1 | 2 | –
B2 | 2 | –
B3 | – | binds
B4 | – | binds
